According to patent publication US10441636B2, “Method of diagnosis and treatment” (LA TROBE UNIVERSITY, priority 2012, dated 2019):
Entries after “also recorded” stand apart in the source; their conditions may differ.

B1: IFN-α1: Recombinant Interferon-α1, a type I IFN, injected intraperitoneally 3 times weekly at 10^5 IU/dose (protein, UniProt P01562 24-189, looked up)
Interferon alpha-1/13: CDLPETHSLDNRRTLMLLAQMSRISPSSCLMDRHDFGFPQEEFDGNQFQKAPAISVLHELIQQIFNLFTTKDSSAAWDEDLLDKFCTELYQQLNDLEACVMQEERVGETPLMNADSILAVKKYFRRITLYLTEKKYSPCAWEVVRAEIMRSLSLSTNLQERLRRKE

Experiments:
[1] = tested on: 4T1.2 tumours; assay: Early treatment setting after primary tumour resection: poly I:C, doxorubicin or combination (bioluminescence imaging); assay type: in vivo, Balb/c mice; details: treatment from 2 days after resection for 2 weeks; 25 ug poly I:C every 2 days, 4 mg/kg doxorubicin every 4 days; bioluminescence (FIG. 21)
Description: 4T1.2 cells were inoculated into the 4th mammary gland of Balb/c mice. Primary tumours were resected when they reached 0.2 g and 2 days later treatment was started for a period of 2 weeks. Mice were treated with vehicle alone, 25 ug poly I:C every 2 days, 4 mg/kg doxorubicin every 4 days, or the combination of poly I:C and doxorubicin. Metastatic burden was visualised in all mice at a set time point using bioluminescence imaging.

[2] = tested on: 4T1.2 tumours; assay: 4T1.2 tumour bearing mice treated with poly I:C (bioluminescence imaging, Q-PCR of tumour burden); assay type: in vivo
Description: Mice bearing 4T1.2 cells were treated with 25 ug poly I:C 3× weekly by tail vein injection beginning at day 3. (a) Bioluminescence imaging of 4T1.2 primary tumour burden prior to surgical resection (b) Bioluminescence imaging of metastatic burden in mice treated with vehicle or poly I:C (c) Q-PCR detection of 4T1.2 tumour burden in femur, spine and lung of mice at day 33.
These techniques have previously been described by Eckhardt and colleagues (Eckhardt 2005). Briefly, mice were inoculated with 10^5 cells into the 4th mammary fatpad of female 6-8 week old Balb/c mice. Tumour volumes were monitored by caliper measurement 3 times weekly. […] Metastatic burden in secondary tissues was detected by a Q-PCR based assay using a reporter sequence inserted into the genome of the 4T1.2 cells. Survival assays were conducted in the same way except at day 22 the mice were anaesthetized using either a combination of ketamine hydrochloride (1.2 m/g of mouse)/xylaxil hydrochloride (3 μg/g of mouse) or 2.5% aerosol isoflurane in 100% oxygen and the primary tumour was surgically removed and weighed. […] At time of sacrifice, all mice had evidence of bone and lung metastasis unless otherwise stated. Anti-CD8 (clone 53-6.7, produced in house) and the control antibody rat IgG2a (clone 2A3, produced in house) were injected intraperitoneally at 50 μg per dose on days −1, 0, 1, 4, 7 and subsequently every 7 d. Rabbit anti-asialo GM1 was purchased from Wako chemicals and injected intraperitoneally according to the manufacturer's instructions.

[3] = tested on: 4T1.2 cells; assay: Real-time RT-PCR of 4T1.2 cells treated with recombinant IFN-α1; assay type: cell-based, mouse; details: 4T1.2 cells in vitro, recombinant IFN-α1 1000 IU/mL, real-time RT-PCR (FIG. 6a)
Excerpt: (§1) FIG. 6: The effect of type I IFN treatment on metastasis. (a) Real-time RT-PCR analysis of 4T1.2 cells treated with […] recombinant IFN-α1. (n=3, * p<0.05, error bars are S.E.M.). (b) Proliferation of 4T1.2 cells treated with 1000 IU/mL of recombinant […]. (n=6, error bars are S.E.M.). (c) Primary tumour volume, n=15. (d) Q-PCR detection of metastatic 4T1.2 tumour burden in spine (at day 33 post tumour cell inoculation) of mice treated with IFNα1 or vehicle. (e) H&E stained sections of spines and femurs from 4T1.2 bearing mice treated with IFN-α1 or vehicle (Scale bar=50 T=Tumour). (f) Kaplan-Meier disease-free survival analysis of mice bearing 4T1.2 tumours that were subsequently resected. Mice were treated with 10^5 IU of recombinant IFN-α1 or saline from day 3. (n=15).
66cl4 and 4T1 cell lines were kindly provided by Dr. Fred Miller (Karmanos Cancer Institute, Detroit, Mich.). Derivation of the 4T1.2 line has previously been described (Eckhardt et al. 2005, supra; Lelekakis et al. 1999, supra). Recombinant Interferon-α1 was used at a dose of 1000 IU/mL. Interferon-α receptor blocking antibody (MAR1-5A3) was used at a concentration of 10 μg/mL (Leinco, St Louis, Mo.). G-CSF ELISA was performed according to manufacturer's instructions (R&D Systems, Minneapolis, Minn., USA). Flow cytometry was performed using standard techniques. MDSCs were assessed using Ly6G (clone IA8) and CD11b (clone M1/70) specific antibodies (BD Pharmingen, Franklin Lakes, N.J., USA) at a dilution of 1:200. Flow Cytometry was performed using an LSR-II (BD Pharmingen, San Jose, Calif.). Real-time RT-PCR was performed using standard techniques. In vitro proliferation was assessed using a sulforhodamine B binding assay as previously described (Eckhardt et al. 2005, supra). […]
Expression level of each gene was calculated based on the cycle threshold (CT), set within the linear range of DNA amplification. Expression level (arbitrary units) was calculated as relative transcript abundance (RTA) by: RTA=10000/(2^ΔCT), where ΔCT=CT (gene of interest)−CT(GAPDH).

[4] = tested on: 4T1.2 cells; assay: In vitro proliferation of 4T1.2 cells (sulforhodamine B binding assay); assay type: cell-based, mouse; details: 1000 IU/mL recombinant IFN-α1 (FIG. 6b)
Excerpt: as §1
66cl4 and 4T1 cell lines were kindly provided by Dr. Fred Miller (Karmanos Cancer Institute, Detroit, Mich.). Derivation of the 4T1.2 line has previously been described (Eckhardt et al. 2005, supra; Lelekakis et al. 1999, supra). Recombinant Interferon-α1 was used at a dose of 1000 IU/mL. […] MDSCs were assessed using Ly6G (clone IA8) and CD11b (clone M1/70) specific antibodies (BD Pharmingen, Franklin Lakes, N.J., USA) at a dilution of 1:200. […] In vitro proliferation was assessed using a sulforhodamine B binding assay as previously described (Eckhardt et al. 2005, supra). […]

[5] = tested on: 4T1.2 tumours; assay: Mouse metastasis assay, 4T1.2 mammary tumours, IFN-α1 treatment; assay type: in vivo, Balb/c mice
Excerpt: as §1
Female Balb/c mice (6-8 weeks old) were obtained from ARC (Perth, WA, Australia) or Walter and Eliza Hall Institute (Kew, Vic, Australia) breeding facilities. Female NSG mice were obtained from WEHI breeding facility under license from The Jackson Laboratory and Balb/c Ifnar1^−/− (Hwang et al. 1995, supra) were bred in-house. Recombinant IFN-α1 was injected intraperitoneally 3 times weekly at a dose of 10^5 IU/dose. All other mouse assays were performed using standard techniques. Metastasis was assessed using a previously described assay (Eckhardt et al. 2005, supra). Mouse investigations were performed with the approval of the Peter MacCallum Animal Ethics Experimentation Committee.
(§2) These techniques have previously been described by Eckhardt and colleagues (Eckhardt 2005). Briefly, mice were inoculated with 10^5 cells into the 4th mammary fatpad of female 6-8 week old Balb/c mice. Tumour volumes were monitored by caliper measurement 3 times weekly. […] Metastatic burden in secondary tissues was detected by a Q-PCR based assay using a reporter sequence inserted into the genome of the 4T1.2 cells. […]

[6] = tested on: 4T1.2 tumours; assay: Metastasis-free survival assay with primary tumour resection, IFN-α1 treatment; assay type: in vivo, Balb/c mice
Excerpt: as §1
Female Balb/c mice (6-8 weeks old) were obtained from ARC (Perth, WA, Australia) or Walter and Eliza Hall Institute (Kew, Vic, Australia) breeding facilities. […] Metastasis was assessed using a previously described assay (Eckhardt et al. 2005, supra). […]
as §2, with “Briefly, mice were inoculated with 10^5 cells into the 4th mammary fatpad of female 6-8 week old Balb/c mice.” left out

[7] = tested on: 4T1.2 tumour bearing mice; assay: Immune cell populations (flow cytometry) and G-CSF (ELISA) in 4T1.2 tumour bearing mice treated with IFN-α1; assay type: in vivo, Balb/c mice
Description: FIG. 18: Measurement of MDSC and G-CSF in blood of 4T1.2 tumour bearing mice treated with IFNα1. Mice were treated with IFN-al or saline control one day after 4T1.2 tumour cell inoculation into the mammary gland. Five days after tumour inoculation, MDSC percentage (a) and absolute numbers (b) were measured, along with G-CSF levels by ELISA (c).
FIG. 19: Changes in immune cells in the mammary gland, lung and bone. a) Mice were treated with IFN-α1 or saline control on day 1, 3 and 5 after 4T1.2 tumour cell inoculation into the mammary gland. Ten days after tumour inoculation MDSC, NK, CD4^+ and CD8^+ T cell percentages were measured in fatpad/primary tumour, lung and bone marrow. N=5. Difference between treatment groups was assessed using an unpaired T test and significance is indicated. b) Cells isolated from the mammary gland, lung and bone marrow of naïve Balb/c mice were stained for DX5, TCR, CD11b and CD27. Shown are representative profiles for CD11b and CD27 expression on gated DX5^+TCR. Percentage of CD11b^low/high and/or CD27^low/high are indicated.
66cl4 and 4T1 cell lines were kindly provided by Dr. Fred Miller (Karmanos Cancer Institute, Detroit, Mich.). Derivation of the 4T1.2 line has previously been described (Eckhardt et al. 2005, supra; Lelekakis et al. 1999, supra). Recombinant Interferon-α1 was used at a dose of 1000 IU/mL. Interferon-α receptor blocking antibody (MAR1-5A3) was used at a concentration of 10 μg/mL (Leinco, St Louis, Mo.). G-CSF ELISA was performed according to manufacturer's instructions (R&D Systems, Minneapolis, Minn., USA). Flow cytometry was performed using standard techniques. MDSCs were assessed using Ly6G (clone IA8) and CD11b (clone M1/70) specific antibodies (BD Pharmingen, Franklin Lakes, N.J., USA) at a dilution of 1:200. Flow Cytometry was performed using an LSR-II (BD Pharmingen, San Jose, Calif.). Real-time RT-PCR was performed using standard techniques. In vitro proliferation was assessed using a sulforhodamine B binding assay as previously described (Eckhardt et al. 2005, supra). Immunohistochemistry was performed using standard techniques, using α-mouse Irf7 (Zymed/Invitrogen, Carlsbad, Calif., USA) α-human Irf7 (BD Pharmingen, Franklin Lakes, N.J., USA) at a concentration of 5 μg/mL.

[8] = IFN-α1 on day 1, 3 and 5, measured ten days after tumour inoculation (FIG. 19a)

Row | Molecule | metastasis at end point [1] | primary tumour growth ([2]; 25 ug poly I:C 3x weekly by tail vein injection from day 3, bioluminescence imaging (FIG. 20a)) | metastatic burden in lung and bone ([2]; 25 ug poly I:C 3x weekly, PCR detection of tumour cell markers at day 33 (FIG. 20c)) | metastasis to multiple organs ([2]; 25 ug poly I:C 3x weekly, bioluminescence after primary tumour resection (FIG. 20b)) | expression of Irf7 [3] | expression of Irf9 [3] | expression of STAT1 [3] | 4T1.2 cell proliferation in vitro [4] | metastasis to the spine and femur ([5]; 10^5 IU/dose i.p. 3 times weekly, Q-PCR at day 33 and H&E, vs vehicle, P<0.007 (FIG. 6d, e)) | extent of metastasis to lung ([5]; 10^5 IU/dose i.p. 3 times weekly, Q-PCR, endpoint day 33 (FIG. 17)) | primary tumour growth in vivo ([5]; 10^5 IU/dose intraperitoneally 3 times weekly (FIG. 6c)) | metastasis-free survival ([6]; 10^5 IU recombinant IFN-α1 or saline for five weeks, primary tumour resection at 3 weeks (FIG. 6f)) | growth of primary tumours ([6]; survival study, treatment for five weeks, primary tumour resection at 3 weeks) | G-CSF levels in the peripheral blood ([7]; 4T1.2 tumour bearing mice, IFN-α1 vs saline, ELISA (FIG. 18c)) | MDSC accumulation in the peripheral blood ([7]; 4T1.2 tumour bearing mice, IFN-α1 vs saline, five days after tumour inoculation (FIG. 18), listed as IFN) | CD11b+Ly6G+ MDSC in the bone marrow [7, 8] | NK cells at the primary site or in lungs [7, 8] | NK cells in the bone marrow [7, 8]
1 | COc1cccc2c1C(=O)c1c(O)c3c(c(O)c1C2=O)C[C@@](O)(C(=O)CO)C[C@@H]3O[C@H]1C[C@H](N)[C@H](O)[C@H](C)O1 [doxorubicin] | did not significantly impact metastasis | – | – | – | – | – | – | – | – | – | – | – | – | – | – | – | – | –
2 | poly I:C | did not significantly impact metastasis | did not alter | significant decrease | suppressed metastasis to multiple organs; also recorded: suppresses metastasis | – | – | – | – | – | – | – | – | – | – | – | – | – | –
3 | B1 | – | – | – | – | increased expression | increased expression | increased expression | did not affect | significantly reduced metastasis to the spine and femur to undetectable levels | not reduced | did not affect | significant extension | no effect | decreased | significantly decreased | significantly decreased | not observed | significantly increased
